Measurements as given in US20080274100A1.
Residue numbers refer to the chain shown, from its start. Like-named read-outs stand apart in the source and are kept apart here. Values belong to the binder of their own block, whether it stands above or below them.

What was measured:
[1] = target: GPIb on human platelets (human) (UniProt P07359); assay: FACS on human platelets
[2] = target: CCR5 (residues 1-18) derived peptide, non-sulfated; assay: peptide ELISA, 0.5 µg/well scFv
[3] = target: CCR5 (residues 1-18) derived peptide, sulfated at 1st tyrosine position; assay: peptide ELISA, 0.5 µg/well scFv
[4] = target: CCR5 (residues 1-18) derived peptide, sulfated at 2nd tyrosine position; assay: peptide ELISA, 0.5 µg/well scFv
[5] = target: CCR5 (residues 1-18) derived peptide, sulfated at 3rd tyrosine position; assay: peptide ELISA, 0.5 µg/well scFv
[6] = target: GPIb (residues 268-285) derived peptide, non-sulfated; assay: peptide ELISA, 0.5 µg/well scFv
[7] = target: GPIb (residues 268-285) derived peptide, sulfated at 1st tyrosine position; assay: peptide ELISA, 0.5 µg/well scFv
[8] = target: GPIb (residues 268-285) derived peptide, sulfated at 3rd tyrosine position; assay: peptide ELISA, 0.5 µg/well scFv
[9] = target: PSGL-1 (residues 42-58) derived peptide, non-sulfated; assay: peptide ELISA, 0.5 µg/well scFv
[10] = target: PSGL-1 (residues 42-58) derived peptide, sulfated at 1st tyrosine position; assay: peptide ELISA, 0.5 µg/well scFv
[11] = target: PSGL-1 (residues 42-58) derived peptide, sulfated at 2nd tyrosine position; assay: peptide ELISA, 0.5 µg/well scFv
[12] = target: PSGL-1 (residues 42-58) derived peptide, sulfated at 3rd tyrosine position; assay: peptide ELISA, 0.5 µg/well scFv
[13] = target: CCR5 (residues 1-18) derived peptide, sulfated at 2nd tyrosine position; assay: peptide ELISA, 0.5 µg/well scFv; remark: listed apart in the source
[14] = target: GPIb (residues 268-285) derived peptide, sulfated at 1st tyrosine position; assay: peptide ELISA, 0.5 µg/well scFv; remark: listed apart in the source
[15] = target: GPIb (residues 268-285) derived peptide, sulfated at 3rd tyrosine position; assay: peptide ELISA, 0.5 µg/well scFv; remark: listed apart in the source
[16] = target: PSGL-1 (residues 42-58) derived peptide, sulfated at 3rd tyrosine position; assay: peptide ELISA, 0.5 µg/well scFv; remark: listed apart in the source

Sequence of GPIb on human platelets (human) (P07359 17-652): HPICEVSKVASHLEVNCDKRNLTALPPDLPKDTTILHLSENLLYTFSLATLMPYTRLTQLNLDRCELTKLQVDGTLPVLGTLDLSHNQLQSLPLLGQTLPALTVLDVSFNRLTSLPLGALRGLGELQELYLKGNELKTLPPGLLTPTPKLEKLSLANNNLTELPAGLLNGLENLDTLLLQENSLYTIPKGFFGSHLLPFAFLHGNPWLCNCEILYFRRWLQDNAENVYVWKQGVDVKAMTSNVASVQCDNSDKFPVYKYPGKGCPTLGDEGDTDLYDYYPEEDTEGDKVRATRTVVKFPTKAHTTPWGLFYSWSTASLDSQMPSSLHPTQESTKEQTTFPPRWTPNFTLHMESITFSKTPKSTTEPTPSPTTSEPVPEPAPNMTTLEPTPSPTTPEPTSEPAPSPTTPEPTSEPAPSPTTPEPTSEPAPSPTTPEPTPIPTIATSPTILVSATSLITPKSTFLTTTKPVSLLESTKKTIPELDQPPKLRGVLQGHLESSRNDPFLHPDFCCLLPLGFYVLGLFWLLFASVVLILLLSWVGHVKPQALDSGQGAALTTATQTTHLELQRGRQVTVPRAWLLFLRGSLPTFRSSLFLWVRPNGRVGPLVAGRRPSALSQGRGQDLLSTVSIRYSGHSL

- fold binding capacity relative to Y1 [1]: 25 fold
- ELISA read-out at 450 nm [2]: 0.06 OD 450 nm
- ELISA read-out at 450 nm [3]: 0.07 OD 450 nm
- ELISA read-out at 450 nm [4]: 0.3 OD 450 nm
- ELISA read-out at 450 nm [5]: 0.07 OD 450 nm
- ELISA read-out at 450 nm [6]: 0.07 OD 450 nm
- ELISA read-out at 450 nm [7]: 0.8 OD 450 nm
- ELISA read-out at 450 nm [8]: 0.15 OD 450 nm
- ELISA read-out at 450 nm [9]: 0.07 OD 450 nm
- ELISA read-out at 450 nm [10]: 0.1 OD 450 nm
- ELISA read-out at 450 nm [11]: 0.08 OD 450 nm
- ELISA read-out at 450 nm [12]: 0.8 OD 450 nm
B1: S1 scFv (scFv)
scFv: EVQLVESGGGVVRPGGSLRLSCAASGFTFDLNPKVKHMWVRQAPGKGLEWVSGINWNGGSTGYADSVKGRFTISRDNAKNSLYLQMNSLRAEDTAVYYCARLRPPFLWGQGTLVTVSRGGGGSGGGGSGGGGSSELTQDPAVSVALGQTVRITCQGDSLRSYYASWYQQKPGQAPVLVIYGKNNRPSGIPDRFSGSSSGNTASLTITGAQAEDEADYYCNSRDSSGNHVVFGGGTKLTVLGAAAEQKLISEEDLNGAA

- ELISA read-out at 450 nm [2]: 0.08 OD 450 nm
- ELISA read-out at 450 nm [6]: 0.1 OD 450 nm
- ELISA read-out at 450 nm [9]: 0.01 OD 450 nm
- ELISA read-out at 450 nm [13]: 0.7 OD 450 nm
- ELISA read-out at 450 nm [14]: 0.6 OD 450 nm
- ELISA read-out at 450 nm [15]: 0.3 OD 450 nm
- ELISA read-out at 450 nm [16]: 0.7 OD 450 nm
B2: S11 scFv (scFv)
scFv: B1 scFv with P104Y, L107F
